Results published in US20190241648A1 (STATEN BIOTECHNOLOGY B V, published 2019).
Ends that are not written are not given here.

Target: T1, ApoC3 peptide F64L (human, thioether (positions not given here); not fully specified (bridges); also: cyclic (thioether), positions not given here)
T1 peptide: DKFSELWDLDPEV
Assay: cyclic peptide substitution array
In short: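 Peptide microarrays incubated with antibody samples, then stained with goat anti-human IgG (Fc) DyLight680 and anti-HA DyLight800 control antibodies, scanned at intensity 7/7 (red/green). Secondary-only pre-stain checked background binding; framing HA peptides served as quality control; substitution effects read as changes in spot intensity.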

B1: Llama antibody 5E5 (antibody, V domains shown)
VH: QLQLVESGGGLVQPGGSLRLSCAASGFTFGTYSMRWVRQVPRKALEWVSSISTDGGGTAYRDSVKGRFTISRDNAKNTLYLQMNNLKPEDTAIYYCVIAGYSDWGQGTQVTVSS
VL: ATMLTQSPGSLSVVPGESASISCKTSQGLVHSDGKTYFYWFLQKPGQSPQQLIYQVSNRASGVPDRFTGSGSGTDFTLKISGVKAEDAGVYYCAQGTYYPHTFGSGTRLEIK
notes: detected with goat anti-human IgG (Fc); also called mAb 5E5
B1 was tested, and the “% of binding to wild-type peptide” value was 118%.
